Data on 32 molecules can be found in patent US20030148956A1 (PROCTER AND GAMBLE, published 2003).

Ends that are not written are not given here. Where only a bound is given, the exact number is not on record here.

One experiment concerns the target T1, CRF2R.
T1 sequence (Q13324 whole entry, species assumed, looked up): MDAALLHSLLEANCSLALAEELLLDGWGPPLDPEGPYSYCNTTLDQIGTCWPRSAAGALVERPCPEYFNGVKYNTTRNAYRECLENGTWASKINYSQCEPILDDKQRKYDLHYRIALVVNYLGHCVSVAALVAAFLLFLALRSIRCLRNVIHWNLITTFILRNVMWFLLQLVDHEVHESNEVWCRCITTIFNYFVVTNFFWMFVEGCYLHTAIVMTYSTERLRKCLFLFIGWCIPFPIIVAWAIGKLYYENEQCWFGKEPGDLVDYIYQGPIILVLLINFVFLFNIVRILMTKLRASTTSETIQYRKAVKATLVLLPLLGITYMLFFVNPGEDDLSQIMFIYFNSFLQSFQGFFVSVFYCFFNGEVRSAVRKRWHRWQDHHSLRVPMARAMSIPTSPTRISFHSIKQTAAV
The experiment is described as follows: cell-based or functional assay.

A further experiment concerns the target CRF1R. In words: cell-based or functional assay.

Regarding SQEPPISLDLPLELLREVLEMTKADQLAQQAHSNRKLLDIA-NH2 [SEQ ID NO 89], in the experiment with CRF2R, the “CRF2R EC50” value amounted to 100 nM and the “CRF2R Emax” value turned out to be 12.7%.

On to Ac-IVLSLDVPIGLLQILLEQEKARAAREQATTNARILARV-NH2 (not fully specified) [SEQ ID NO 107], for which the “CRF2R EC50” value with CRF2R was found to be 12.1 nM.

On to IVLSLDVPIGLLQILLEQEKARAAREQATTNARILARV-NH2 [SEQ ID NO 121], for which, in the experiment with CRF2R, the “CRF2R EC50” value was 5.67 nM.

For ZGPPISIDLSIGLLRKMIEIEKQEKEKQQAANNRLLLDTI (C-terminal amide) [SEQ ID NO 25], in the experiment with CRF2R, the “CRF2R EC50” value came out at 81 nM and the “CRF2R Emax” value stood at 81.9%. For the same molecule, in the experiment with CRF1R, the “CRF1R EC50” value came to 677 nM and the “CRF1R Emax” value was 92.3%.

Consider ZGPPISIDLPTTLLRKMIEIEKQEKEKQQAANNRLLLDTI (C-terminal amide) [SEQ ID NO 42], for which, in the experiment with CRF2R, the “CRF2R EC50” value is more than 100 nM and the “CRF2R Emax” value is 88%. Moreover, in the experiment with CRF1R, the “CRF1R EC50” value was more than 1000 nM and the “CRF1R Emax” value turned out to be 10%.

Take ZGPPISIDLPINLLRKMIEIEKQEKEKQQAANNRLLLDTI (C-terminal amide) [SEQ ID NO 37]: in the experiment with CRF2R, the “CRF2R EC50” value was more than 100 nM and the “CRF2R Emax” value was 51%. For the same molecule, in the experiment with CRF1R, the “CRF1R EC50” value was more than 1000 nM and the “CRF1R Emax” value worked out at 5%.

In the case of ZGPPISIDLPILLLRKMIEIEKQEKEKQQAANNRLLLDTI (C-terminal amide) [SEQ ID NO 35], in the experiment with CRF2R, the “CRF2R EC50” value was determined as 15.6 nM and the “CRF2R Emax” value was determined as 88%. Further, in the experiment with CRF1R, the “CRF1R EC50” value is more than 1000 nM and the “CRF1R Emax” value was determined as 74%.

In the case of ZGPPISIDLPIPLLRKMIEIEKQEKEKQQAANNRLLLDTI (C-terminal amide) [SEQ ID NO 26], in the experiment with CRF2R, the “CRF2R EC50” value was 91.8 nM and the “CRF2R Emax” value worked out at 86%. In addition, in the experiment with CRF1R, the “CRF1R EC50” value is more than 1000 nM and the “CRF1R Emax” value came out at 16%.

ZGPPISIDLPTKLLRKMIEIEKQEKEKQQAANNRLLLDTI (C-terminal amide) [SEQ ID NO 45]: in the experiment with CRF2R, the “CRF2R EC50” value is more than 100 nM and the “CRF2R Emax” value worked out at 44%. Further, in the experiment with CRF1R, the “CRF1R EC50” value is more than 1000 nM and the “CRF1R Emax” value amounted to 7%.

Regarding ZGPPISIDLPEYLLRKMIEIEKQEKEKQQAANNRLLLDTI (C-terminal amide) [SEQ ID NO 48], in the experiment with CRF2R, the “CRF2R EC50” value was 100 nM and the “CRF2R Emax” value turned out to be 14%. For the same molecule, in the experiment with CRF1R, the “CRF1R EC50” value amounted to 1000 nM and the “CRF1R Emax” value amounted to 21%.

With ZGPPISIDLPTILLRKMIEIEKQEKEKQQAANNRLLLDTI (C-terminal amide) [SEQ ID NO 50], in the experiment with CRF2R, the “CRF2R EC50” value came out at 19 nM and the “CRF2R Emax” value was 94%. Moreover, in the experiment with CRF1R, the “CRF1R EC50” value is more than 1000 nM and the “CRF1R Emax” value was 42%.

ZGPPISIDLPTDLLRKMIEIEKQEKEKQQAANNRLLLDTI (C-terminal amide) [SEQ ID NO 49]: in the experiment with CRF2R, the “CRF2R EC50” value is more than 100 nM and the “CRF2R Emax” value was 37%. For the same molecule, in the experiment with CRF1R, the “CRF1R EC50” value is more than 1000 nM and the “CRF1R Emax” value worked out at 15%.

Take ZGPPISIDLPIRLLRKMIEIEKQEKEKQQAANNRLLLDTI (C-terminal amide) [SEQ ID NO 38]: in the experiment with CRF2R, the “CRF2R EC50” value was found to be 71.9 nM and the “CRF2R Emax” value is 91%. For the same molecule, in the experiment with CRF1R, the “CRF1R EC50” value is more than 1000 nM and the “CRF1R Emax” value is 11%.

As to ZGPPISIDLPIILLRKMIEIEKQEKEKQQAANNRLLLDTI (C-terminal amide) [SEQ ID NO 36], in the experiment with CRF2R, the “CRF2R EC50” value turned out to be 14.8 nM and the “CRF2R Emax” value came out at 73%. In addition, in the experiment with CRF1R, the “CRF1R EC50” value was more than 1000 nM and the “CRF1R Emax” value turned out to be 33%.

For the molecule ZGPPISIDLPTLLLRKMIEIEKQEKEKQQAANNRLLLDTI (C-terminal amide) [SEQ ID NO 51], in the experiment with CRF2R, the “CRF2R EC50” value worked out at 20.6 nM and the “CRF2R Emax” value was determined as 100%. In the experiment with CRF1R, the “CRF1R EC50” value is more than 1000 nM and the “CRF1R Emax” value was found to be 48%.

Take ZGPPISIDLPIDLLRKMIEIEKQEKEKQQAANNRLLLDTI (C-terminal amide) [SEQ ID NO 28]: in the experiment with CRF2R, the “CRF2R EC50” value was determined as 100 nM and the “CRF2R Emax” value came to 15%. For the same molecule, in the experiment with CRF1R, the “CRF1R EC50” value was more than 1000 nM and the “CRF1R Emax” value worked out at 2%.

Regarding ZGPPISIDLPTVLLRKMIEIEKQEKEKQQAANNRLLLDTI (C-terminal amide) [SEQ ID NO 46], in the experiment with CRF2R, the “CRF2R EC50” value is more than 100 nM and the “CRF2R Emax” value was 100%. Further, in the experiment with CRF1R, the “CRF1R EC50” value is more than 1000 nM and the “CRF1R Emax” value came out at 17%.

Take ZGPPISIDLPIVLLRKMIEIEKQEKEKQQAANNRLLLDTI (C-terminal amide) [SEQ ID NO 31]: in the experiment with CRF2R, the “CRF2R EC50” value stood at 30.8 nM and the “CRF2R Emax” value is 100%. Moreover, in the experiment with CRF1R, the “CRF1R EC50” value was more than 1000 nM and the “CRF1R Emax” value was found to be 18%.

Regarding ZGPPISIDLPIFLLRKMIEIEKQEKEKQQAANNRLLLDTI (C-terminal amide) [SEQ ID NO 29], in the experiment with CRF2R, the “CRF2R EC50” value stood at 16 nM and the “CRF2R Emax” value came out at 100%. In the experiment with CRF1R, the “CRF1R EC50” value was more than 1000 nM and the “CRF1R Emax” value was 79%.

ZGPPISIDLPVYLLRKMIEIEKQEKEKQQAANNRLLLDTI (C-terminal amide) [SEQ ID NO 39]: in the experiment with CRF2R, the “CRF2R EC50” value came out at 58.2 nM and the “CRF2R Emax” value turned out to be 94%. In the experiment with CRF1R, the “CRF1R EC50” value worked out at 1000 nM and the “CRF1R Emax” value is 63%.

ZGPPISIDLPAYLLRKMIEIEKQEKEKQQAANNRLLLDTI (C-terminal amide) [SEQ ID NO 32]: in the experiment with CRF2R, the “CRF2R EC50” value turned out to be 20.2 nM and the “CRF2R Emax” value stood at 98%. Moreover, in the experiment with CRF1R, the “CRF1R EC50” value was determined as 606 nM and the “CRF1R Emax” value is 94%.

Turning to ZGPPISIDLPQYLLRKMIEIEKQEKEKQQAANNRLLLDTI (C-terminal amide) [SEQ ID NO 27], in the experiment with CRF2R, the “CRF2R EC50” value stood at 10.7 nM and the “CRF2R Emax” value turned out to be 96%. In the experiment with CRF1R, the “CRF1R EC50” value amounted to 325 nM and the “CRF1R Emax” value worked out at 100%.

Turning to ZGPPISIDLPTWLLRKMIEIEKQEKEKQQAANNRLLLDTI (C-terminal amide) [SEQ ID NO 41], in the experiment with CRF2R, the “CRF2R EC50” value is 18.3 nM and the “CRF2R Emax” value came to 100%. Further, in the experiment with CRF1R, the “CRF1R EC50” value was more than 1000 nM and the “CRF1R Emax” value is 43%.

Take ZGPPISIDLPQVLLRKMIEIEKQEKEKQQAANNRLLLDTI (C-terminal amide) [SEQ ID NO 197]: in the experiment with CRF2R, the “CRF2R EC50” value worked out at 48.1 nM and the “CRF2R Emax” value amounted to 94%.

Consider ZGPPISIDLSLELLRKMIEIEKQEKEKQQAANNALLLATI (C-terminal amide) [SEQ ID NO 30], for which, in the experiment with CRF2R, the “CRF2R EC50” value was found to be 18.7 nM and the “CRF2R Emax” value was found to be 85.5%. For the same molecule, in the experiment with CRF1R, the “CRF1R EC50” value turned out to be 100 nM and the “CRF1R Emax” value stood at 100%.

As to ZGPPISIDLPQQLLRKMIEIEKQEKEKQQAANNRLLLDTI (C-terminal amide) [SEQ ID NO 198], in the experiment with CRF2R, the “CRF2R EC50” value was 29.9 nM and the “CRF2R Emax” value was found to be 100%.

Turning to ZGPPISIDLPTSLLRKMIEIEKQEKEKQQAANNRLLLDTI (C-terminal amide) [SEQ ID NO 43], in the experiment with CRF2R, the “CRF2R EC50” value is more than 100 nM and the “CRF2R Emax” value came out at 67%. Also, in the experiment with CRF1R, the “CRF1R EC50” value was more than 1000 nM and the “CRF1R Emax” value was 10%.

As to ZGPPISIDLPYYLLRKMIEIEKQEKEKQQAANNRLLLDTI (C-terminal amide) [SEQ ID NO 40], in the experiment with CRF2R, the “CRF2R EC50” value came to 6.95 nM and the “CRF2R Emax” value is 93%. Moreover, in the experiment with CRF1R, the “CRF1R EC50” value was 102 nM and the “CRF1R Emax” value is 99%.

On to ZGPPISIDLPIKLLRKMIEIEKQEKEKQQAANNRLLLDTI (C-terminal amide) [SEQ ID NO 34], for which, in the experiment with CRF2R, the “CRF2R EC50” value is more than 100 nM and the “CRF2R Emax” value was 45%. Further, in the experiment with CRF1R, the “CRF1R EC50” value was more than 1000 nM and the “CRF1R Emax” value was 11%.

Regarding ZGPPISIDLPIALLRKMIEIEKQEKEKQQAANNRLLLDTI (C-terminal amide) [SEQ ID NO 47], in the experiment with CRF2R, the “CRF2R EC50” value was more than 100 nM and the “CRF2R Emax” value was 66%. Moreover, in the experiment with CRF1R, the “CRF1R EC50” value came to 1000 nM and the “CRF1R Emax” value came to 12%.

With ZGPPISIDLPTFLLRKMIEIEKQEKEKQQAANNRLLLDTI (C-terminal amide) [SEQ ID NO 44], in the experiment with CRF2R, the “CRF2R EC50” value turned out to be 19.1 nM and the “CRF2R Emax” value was 87%. In addition, in the experiment with CRF1R, the “CRF1R EC50” value is 944 nM and the “CRF1R Emax” value was found to be 64%.

Regarding Ac-IVLSLDVPIGLLQILLEQEKARAAREQATTNARILARV-NH2 [SEQ ID NO 3], the “CRF2R EC50” value with CRF2R came out at 12.1 nM.
